# Measured values: patent publication US9951111B2, “Type I interferon mimetics as therapeutics for cancer, viral infections, and multiple sclerosis” (priority 2011, dated 2018)
# Ends that are not written are not given here.
# Key:
# [1] = system: vesicular stomatitis virus (VSV); assay type: cell-based
# [2] = Body weight of mice under IFNα1 or lipo-peptide (FIG. 13); settings: 5×10^3 U/mouse i.p. on alternate days (peptide 100 μg), day 11 difference p<0.05
# [3] = system: vaccinia virus; assay type: in vivo, mice (C57BL/6); settings: i.n. infection; peptides 200 μg or murine IFNα1 2,000 U i.p. for six consecutive days; FIG. 12
# [4] = system: lymphocytes; assay: IFN toxicity in vivo: lymphocyte count on blood smears (Table 4); settings: day 11, i.p. alternate days for ten days, IFN mimetics 2 × 10^3 U in 200 μg per mouse, IFNβ 10^3 U/mouse; for % Reduction (lymphocytes): versus PBS
# [5] = system: EMC virus; assay type: cell-based, encephalomyocarditis (EMC) virus
# [6] = IFN toxicity in vivo: body weight (FIG. 7); settings: 2,000 U per mouse of IFN mimetic I.P. on alternate days
# [7] = system: experimental allergic encephalomyelitis (EAE) in SJL/J mice; assay: Relapsing/remitting EAE in SJL/J mice immunized with MBP; assay type: in vivo; settings: 15 μg/mouse i.p. every other day from day 12 post-immunization with MBP; FIG. 6C
# [8] = system: vaccinia virus; assay type: cell-based
molecule,measurement,setting,value
lipo-IFNτ(156-195) (EKGYSDCAWEIVRVEMMRALTSSTTLQKRLTKTGGDLNSP; also: lipid attached),antiviral activity against vesicular stomatitis virus (VSV),[1],showed antiviral activity
lipo-IFNα1(152-189) (LYLTEKKYSPCAWEVVRAEIMRSLSLSTNLQERLRRKE; also: lipid attached; listed as Homo sapiens),antiviral activity against vesicular stomatitis virus (VSV),[1],showed antiviral activity
same,weight loss,[2],not seen
same,protection against vaccinia virus lethal infection (survival),[3],inhibited vaccinia virus lethal infection of mice
"lipo-IFNβ(150-187) (ILHYLKAKEYSHCAWTIVRVEILRNFYFINRLTGYLRN; also: lipidated; UniProt P01574 150-187, looked up, fragment)",antiviral activity against vesicular stomatitis virus (VSV),[1],showed antiviral activity
IFNβ(100-187)R9 (protein) RRRRRRRRRWNETIVENLLANVYHQINHLKTVLEEKLEKEDFTRGKLMSSLHLKRYYGRILHYLKAKEYSHCAWTIVRVEILRNFYFINRLTGYLRN,Lymphocytes (%),[4],72 ± 5%
same,% Reduction (lymphocytes),[4],9%
same,antiviral activity against EMC virus,[5],possessed antiviral activity
same,body weight change,[6],gained weight
IFNα1(69-189)R9 (protein) RRRRRRRRRNQFQKAPAISVLHELIQQIFNLFTTKDSSAAWDEDLLDKFCTELYQQLNDLEACVMQEERVGETPLMNADSILAVKKYFRRITLYLTEKKYSPCAWEVVRAEIMRSLSLSTNLQERLRRKE,therapeutic efficacy in EAE (mean daily severity of disease),[7],essentially complete therapeutic efficacy
same,Lymphocytes (%),[4],75 ± 3%
same,% Reduction (lymphocytes),[4],4%
same,antiviral activity against EMC virus,[5],possessed antiviral activity
same,body weight change,[6],gained weight
"IFNα1(69-189) (protein, listed as Homo sapiens) NQFQKAPAISVLHELIQQIFNLFTTKDSSAAWDEDLLDKFCTELYQQLNDLEACVMQEERVGETPLMNADSILAVKKYFRRITLYLTEKKYSPCAWEVVRAEIMRSLSLSTNLQERLRRKE",therapeutic efficacy in EAE (mean daily severity of disease),[7],developed paraplegia
"IFNα1 (protein, UniProt P01562 24-189, looked up) Interferon alpha-1/13: CDLPETHSLDNRRTLMLLAQMSRISPSSCLMDRHDFGFPQEEFDGNQFQKAPAISVLHELIQQIFNLFTTKDSSAAWDEDLLDKFCTELYQQLNDLEACVMQEERVGETPLMNADSILAVKKYFRRITLYLTEKKYSPCAWEVVRAEIMRSLSLSTNLQERLRRKE",protection against vaccinia virus (VV) infection,[8],did not protect
same,weight loss,[2],weight loss seen
same,protection against vaccinia virus lethal infection (survival),[3],ineffective
